Assays:
[1] = biological target: poly-GT oligonucleotide tagged anti-TSH mouse monoclonal IgG; experiment: fluorescent microspheres on the poly-CA microspot carrying Poly-GT-Mouse IgG, confocal laser scanning, ex 488 / em 525
[2] = biological target: poly-CT oligonucleotide tagged rabbit IgG; experiment: fluorescent microspheres on the poly-GA microspot carrying Poly-CT-Rabbit IgG, confocal laser scanning, ex 488 / em 525; control 13.3 ± 0.5
[3] = biological target: poly-CT oligonucleotide tagged rabbit IgG; experiment: fluorescent microspheres on the poly-GA microspot carrying Poly-CT-Rabbit IgG, confocal laser scanning, ex 568 / em 585
[4] = biological target: poly-GT oligonucleotide tagged anti-TSH mouse monoclonal IgG; experiment: fluorescent microspheres on the poly-CA microspot carrying Poly-GT-Mouse IgG, confocal laser scanning, ex 568 / em 585; control 22.0 ± 0.2

Row | Substance | Yellow/Green Signal [1] | Yellow/Green Signal [2] | Red Signal [3] | Red Signal [4]
1 | goat anti-mouse IgG (whole molecule) antibody conjugated yellow-green FLUOSPHERES | 101 | 16.9 | – | –
2 | goat anti-rabbit IgG (whole molecule) antibody conjugated red FLUOSPHERES | – | – | 99.8 | 24
